According to US20180155451A1 (published 2018):

B1: GpH7-A5/GpH7-B3 variant P331_03V/GpL16-k0 (antibody, human IgG1, kappa)
heavy 1: not shown
heavy 2: not shown
light: DIVMTQSPLSLPVTPGEPASISCQASESLVHSNRNTYLHWYLQKPGQSPQLLIYKVSNRFSGVPDRFSGSGSGTDFTLKISRVEAEDVGVYYCSQNTHVPPTFGQGTKVEIERTVAAPSVFIFPPSDEQLKSGTASVVCLLNNFYPREAKVQWKVDNALQSGNSQESVTEQDSKDSTYSLSSTLTLSKADYEKHKVYACEVTHQGLSSPVTKSFNRGEC
notes: Heterodimerized anti-glypican-3 IgG1; P331V (EU) only in the GpH7-B3 chain; also called He Ab
B2: GpH7-A5/GpH7-B3 variant L328_13S/GpL16-k0 (antibody, human IgG1, kappa)
heavy 1: not shown
heavy 2: not shown
light: B1 light
notes: Heterodimerized anti-glypican-3 IgG1; L328S (EU) only in the GpH7-B3 chain; also called He Ab
B3: GpH7-A5/GpH7-B3 variant L328_09D/GpL16-k0 (antibody, human IgG1, kappa)
heavy 1: not shown
heavy 2: not shown
light: B1 light
notes: Heterodimerized anti-glypican-3 IgG1; L328D (EU) only in the GpH7-B3 chain; also called He Ab
B4: GpH7-A5/GpH7-B3 variant L328_06M/GpL16-k0 (antibody, human IgG1, kappa)
heavy 1: not shown
heavy 2: not shown
light: B1 light
notes: Heterodimerized anti-glypican-3 IgG1; L328M (EU) only in the GpH7-B3 chain; also called He Ab
B5: GpH7-A5/GpH7-B3 variant L328_14T/GpL16-k0 (antibody, human IgG1, kappa)
heavy 1: not shown
heavy 2: not shown
light: B1 light
notes: Heterodimerized anti-glypican-3 IgG1; L328T (EU) only in the GpH7-B3 chain; also called He Ab
B6: GpH7-A5/GpH7-B3 variant L328_16H/GpL16-k0 (antibody, human IgG1, kappa)
heavy 1: not shown
heavy 2: not shown
light: B1 light
notes: Heterodimerized anti-glypican-3 IgG1; L328H (EU) only in the GpH7-B3 chain; also called He Ab
B7: GpH7-A5/GpH7-B3 variant I332_11K/GpL16-k0 (antibody, human IgG1, kappa)
heavy 1: not shown
heavy 2: not shown
light: B1 light
notes: Heterodimerized anti-glypican-3 IgG1; I332K (EU) only in the GpH7-B3 chain; also called He Ab
B8: GpH7-A5/GpH7-B3 variant L328_19Q/GpL16-k0 (antibody, human IgG1, kappa)
heavy 1: not shown
heavy 2: not shown
light: B1 light
notes: Heterodimerized anti-glypican-3 IgG1; L328Q (EU) only in the GpH7-B3 chain; also called He Ab
B9: GpH7-A5/GpH7-B3 variant L328_20W/GpL16-k0 (antibody, human IgG1, kappa)
heavy 1: not shown
heavy 2: not shown
light: B1 light
notes: Heterodimerized anti-glypican-3 IgG1; L328W (EU) only in the GpH7-B3 chain; also called He Ab
B10: GpH7-A5/GpH7-B3 variant L328_18N/GpL16-k0 (antibody, human IgG1, kappa)
heavy 1: not shown
heavy 2: not shown
light: B1 light
notes: Heterodimerized anti-glypican-3 IgG1; L328N (EU) only in the GpH7-B3 chain; also called He Ab
B11: GpH7-A5/GpH7-B3 variant P329_20W/GpL16-k0 (antibody, human IgG1, kappa)
heavy 1: not shown
heavy 2: not shown
light: B1 light
notes: Heterodimerized anti-glypican-3 IgG1; P329W (EU) only in the GpH7-B3 chain; also called He Ab
B12: GpH7-A5/GpH7-B3 variant L328_07I/GpL16-k0 (antibody, human IgG1, kappa)
heavy 1: not shown
heavy 2: not shown
light: B1 light
notes: Heterodimerized anti-glypican-3 IgG1; L328I (EU) only in the GpH7-B3 chain; also called He Ab
B13: GpH7-A5/GpH7-B3 variant L328_10E/GpL16-k0 (antibody, human IgG1, kappa)
heavy 1: not shown
heavy 2: not shown
light: B1 light
notes: Heterodimerized anti-glypican-3 IgG1; L328E (EU) only in the GpH7-B3 chain; also called He Ab
B14: GpH7-A5/GpH7-B3 variant T335_06M/GpL16-k0 (antibody, human IgG1, kappa)
heavy 1: not shown
heavy 2: not shown
light: B1 light
notes: He Ab: the mutation stands only in the GpH7-B3-derived H chain; also called He Ab T335M
B15: GpH7-A5/GpH7-B3 variant T335_05P/GpL16-k0 (antibody, human IgG1, kappa)
heavy 1: not shown
heavy 2: not shown
light: B1 light
notes: He Ab: the mutation stands only in the GpH7-B3-derived H chain; also called He Ab T335P
B16: GpH7-A5/GpH7-B3 variant S337_04F/GpL16-k0 (antibody, human IgG1, kappa)
heavy 1: not shown
heavy 2: not shown
light: B1 light
notes: He Ab: the mutation stands only in the GpH7-B3-derived H chain; also called He Ab S337F
B17: GpH7-A5/GpH7-B3 variant S337_01G/GpL16-k0 (antibody, human IgG1, kappa)
heavy 1: not shown
heavy 2: not shown
light: B1 light
notes: He Ab: the mutation stands only in the GpH7-B3-derived H chain; also called He Ab S337G

What follows are binders tested against T1, FcγRIIb extracellular domain with C-terminal His tag (human, UniProt P31994 43-217) (assay: SPR (Biacore), antibody captured on antigen peptide chip, FcγR as analyte).
T1 construct: extracellular domain; Soluble receptor expressed in FreeStyle293 cells, used as analyte in Biacore; also called FcgRIIb; 2b; not shown: His tag at the C terminus
T1 sequence (looked up): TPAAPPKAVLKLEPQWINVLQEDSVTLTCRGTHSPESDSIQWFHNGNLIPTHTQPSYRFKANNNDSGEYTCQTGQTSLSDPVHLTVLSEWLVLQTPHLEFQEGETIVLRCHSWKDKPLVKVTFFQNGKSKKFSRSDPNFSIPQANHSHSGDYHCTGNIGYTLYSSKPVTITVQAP
Description: (§1) Analysis of interaction between objective antibody and the FcγR was carried out using Biacore T100 (GE Healthcare). HBS-EP+ (GE Healthcare) was used as the running buffer, and the measurement temperature was set to 25° C. Chips produced by immobilizing the antigen peptide by the amine coupling method to a Series S Sencor Chip CM5 (GE Healthcare), or alternatively, chips produced by allowing preliminarily biotinylated antigen peptides to interact with and immobilize onto a Series S Sensor Chip SA (certified) (GE Healthcare) were used. Antibodies of interest were captured onto an antigen peptide-immobilized chip, and allowed to interact to each FcγR diluted with running buffer. To regenerate and repeatedly use the chip, the antibodies captured on the chip were washed off by reacting 10 mM glycine-HCl, pH 1.5.
(§2) The FcγR-binding activity of each antibody was assessed primarily using as an indicator the FcγR-binding activity and dissociation constant for FcγR.

Row | Binder | He/Con_2b
1 | B1 | 119 relative binding (GpH7-A5/GpH7-B3/GpL16-k0 = 100)
2 | B2 | 149 relative binding (GpH7-A5/GpH7-B3/GpL16-k0 = 100)
3 | B3 | 199 relative binding (GpH7-A5/GpH7-B3/GpL16-k0 = 100)
4 | B4 | 142 relative binding (GpH7-A5/GpH7-B3/GpL16-k0 = 100)
5 | B5 | 141 relative binding (GpH7-A5/GpH7-B3/GpL16-k0 = 100)
6 | B6 | 80.6 relative binding (GpH7-A5/GpH7-B3/GpL16-k0 = 100)
7 | B7 | 70.9 relative binding (GpH7-A5/GpH7-B3/GpL16-k0 = 100)
8 | B8 | 105 relative binding (GpH7-A5/GpH7-B3/GpL16-k0 = 100)
9 | B9 | 235 relative binding (GpH7-A5/GpH7-B3/GpL16-k0 = 100)
10 | B10 | 80.8 relative binding (GpH7-A5/GpH7-B3/GpL16-k0 = 100)
11 | B11 | 45.1 relative binding (GpH7-A5/GpH7-B3/GpL16-k0 = 100)
12 | B12 | 160 relative binding (GpH7-A5/GpH7-B3/GpL16-k0 = 100)
13 | B13 | 172 relative binding (GpH7-A5/GpH7-B3/GpL16-k0 = 100)

These binders were tested against T2, FcγRIIIa extracellular domain with C-terminal His tag (human, UniProt P08637 17-208) in the same assay as above.
T2 construct: extracellular domain; also called FcgRIIIa; 3a; not shown: His tag at the C terminus
Description: as §1, §2
T2 sequence (P08637 17-208): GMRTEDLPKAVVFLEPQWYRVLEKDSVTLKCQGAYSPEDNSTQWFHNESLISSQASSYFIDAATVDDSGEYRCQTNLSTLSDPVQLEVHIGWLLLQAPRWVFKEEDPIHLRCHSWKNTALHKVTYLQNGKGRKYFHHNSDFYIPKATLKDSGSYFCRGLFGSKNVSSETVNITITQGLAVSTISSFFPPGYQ

Row | Binder | He/Con_3a
14 | B1 | 73.2 relative binding (GpH7-A5/GpH7-B3/GpL16-k0 = 100)
15 | B2 | 71.7 relative binding (GpH7-A5/GpH7-B3/GpL16-k0 = 100)
16 | B3 | 47.8 relative binding (GpH7-A5/GpH7-B3/GpL16-k0 = 100)
17 | B4 | 78.6 relative binding (GpH7-A5/GpH7-B3/GpL16-k0 = 100)
18 | B5 | 75.3 relative binding (GpH7-A5/GpH7-B3/GpL16-k0 = 100)
19 | B6 | 54.3 relative binding (GpH7-A5/GpH7-B3/GpL16-k0 = 100)
20 | B7 | 45.1 relative binding (GpH7-A5/GpH7-B3/GpL16-k0 = 100)
21 | B8 | 81.1 relative binding (GpH7-A5/GpH7-B3/GpL16-k0 = 100)
22 | B9 | 37.4 relative binding (GpH7-A5/GpH7-B3/GpL16-k0 = 100)
23 | B10 | 49.7 relative binding (GpH7-A5/GpH7-B3/GpL16-k0 = 100)
24 | B11 | 31.7 relative binding (GpH7-A5/GpH7-B3/GpL16-k0 = 100)
25 | B12 | 84 relative binding (GpH7-A5/GpH7-B3/GpL16-k0 = 100)
26 | B13 | 53.4 relative binding (GpH7-A5/GpH7-B3/GpL16-k0 = 100)

These binders were tested against T3, FcγRIIIa extracellular domain with C-terminal His tag (human, UniProt P08637 17-208) (assay: SPR (Biacore), antibody captured via antigen peptide, FcγR as analyte; binding relative to GpH7-A5/GpH7-B3/GpL16-k0 = 100).
T3 construct: extracellular domain; also called FcgRIIIa; 3a; not shown: His tag at the C terminus
T3 sequence (P08637 17-208): as above

Row | Binder | He/Con_3a
27 | B14 | 102 relative (control = 100)
28 | B15 | 105 relative (control = 100)
29 | B16 | 101 relative (control = 100)
30 | B17 | 102 relative (control = 100)

Each binder was assayed against T4, FcγRIIb extracellular domain with C-terminal His tag (human, UniProt P31994 43-217) in the same assay as above.
T4 construct: extracellular domain; also called FcgRIIb; 2b; not shown: His tag at the C terminus
T4 sequence (looked up): T1 sequence (looked up)

Row | Binder | He/Con_2b
31 | B14 | 99.4 relative (control = 100)
32 | B15 | 99.9 relative (control = 100)
33 | B16 | 97.8 relative (control = 100)
34 | B17 | 92 relative (control = 100)

The binders below were run against T2, FcγRIIIa extracellular domain with … (assay: SPR; He/Con_3a divided by He/Con_2b (FcγRIIIa over FcγRIIb)).
Description: as §1, §2

Row | Binder | He_3a/2b (IIIa/IIb)
35 | B1 | 0.62 ratio
36 | B2 | 0.48 ratio
37 | B3 | 0.24 ratio
38 | B4 | 0.56 ratio
39 | B5 | 0.53 ratio
40 | B6 | 0.67 ratio
41 | B7 | 0.64 ratio
42 | B8 | 0.77 ratio
43 | B9 | 0.16 ratio
44 | B10 | 0.61 ratio
45 | B11 | 0.7 ratio
46 | B12 | 0.52 ratio
47 | B13 | 0.31 ratio
